Measured values from PMC10397247.
Values belong to the binder of their own block, whether it stands above or below them.

Key:
[1] = target: T1, Core_NIIN-es_KKKK; assay: two-hybrid library CCmax; settings: mean of both orientations;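 further: natural log of median RNA to DNA barcode read ratio; higher means stronger binding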
T1 chain: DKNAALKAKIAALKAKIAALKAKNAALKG

[2] = target: T2, P10bH1; assay: two-hybrid library CCNG1;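 further: natural log of median RNA to DNA barcode read ratio; higher means stronger binding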
T2 chain: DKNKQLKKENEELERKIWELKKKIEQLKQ

[3] = target: T3, P11bH1; assay: two-hybrid library CCNG1;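 further: natural log of median RNA to DNA barcode read ratio; higher means stronger binding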
T3 chain: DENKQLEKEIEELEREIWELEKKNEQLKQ

[4] = target: T4, P12bH1; assay: two-hybrid library CCNG1;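 further: natural log of median RNA to DNA barcode read ratio; higher means stronger binding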
T4 chain: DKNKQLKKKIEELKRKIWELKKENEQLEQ

[5] = target: T5, P1bH1; assay: two-hybrid library CCNG1
T5 chain: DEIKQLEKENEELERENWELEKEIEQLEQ

[6] = target: T6, P2bH1; assay: two-hybrid library CCNG1
T6 chain: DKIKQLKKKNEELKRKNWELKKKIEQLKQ

[7] = target: T7, P3bH1; assay: two-hybrid library CCNG1
T7 chain: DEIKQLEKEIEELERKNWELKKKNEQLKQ

[8] = target: T8, P4bH1; assay: two-hybrid library CCNG1
T8 chain: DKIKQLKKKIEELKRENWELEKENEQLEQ

[9] = target: T9, P5bH1; assay: two-hybrid library CCNG1
T9 chain: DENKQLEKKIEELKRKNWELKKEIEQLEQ

[10] = target: T10, P6bH1; assay: two-hybrid library CCNG1
T10 chain: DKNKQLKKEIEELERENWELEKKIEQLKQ

[11] = target: T11, P7bH1; assay: two-hybrid library CCNG1
T11 chain: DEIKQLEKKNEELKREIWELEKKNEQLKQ

[12] = target: T12, P8bH1; assay: two-hybrid library CCNG1
T12 chain: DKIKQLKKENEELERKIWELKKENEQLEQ

[13] = target: T13, P9bH1; assay: two-hybrid library CCNG1
T13 chain: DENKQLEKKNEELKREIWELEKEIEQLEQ

[14] = target: T14, Core_INNN-es_KKKK; assay: two-hybrid library CCmax; settings: mean of both orientations
T14 chain: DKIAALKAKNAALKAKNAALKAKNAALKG

[15] = target: T15, Core_INNI-es_KEKE; assay: two-hybrid library CCmax; settings: mean of both orientations
T15 chain: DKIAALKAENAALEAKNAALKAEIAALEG

[16] = target: T16, Core_INII-es_KEEE; assay: two-hybrid library CCmax; settings: mean of both orientations
T16 chain: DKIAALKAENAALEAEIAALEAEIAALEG

[17] = target: T17, Core_NIII-es_KKKK; assay: two-hybrid library CCmax; settings: mean of both orientations
T17 chain: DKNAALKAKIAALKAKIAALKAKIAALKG

[18] = target: T18, Core_INII-es_KEKK; assay: two-hybrid library CCmax; settings: mean of both orientations
T18 chain: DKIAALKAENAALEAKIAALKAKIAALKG

[19] = target: T19, Core_INNI-es_KKEK; assay: two-hybrid library CCmax; settings: mean of both orientations
T19 chain: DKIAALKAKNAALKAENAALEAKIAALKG

[20] = target: T20, Core_INNN-es_KKEK; assay: two-hybrid library CCmax; settings: mean of both orientations
T20 chain: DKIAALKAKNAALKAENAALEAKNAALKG

[21] = target: T21, Core_IINN-es_KEEK; assay: two-hybrid library CCmax; settings: mean of both orientations
T21 chain: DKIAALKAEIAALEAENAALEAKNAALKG

[22] = target: T22, Core_ININ-es_KKEE; assay: two-hybrid library CCmax; settings: mean of both orientations
T22 chain: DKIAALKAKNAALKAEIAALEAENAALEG

[23] = target: T23, 4H166-bH; assay: two-hybrid library CCNG1
T23 chain: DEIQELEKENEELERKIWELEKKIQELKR

[24] = target: T24, 4H2143-bH; assay: two-hybrid library CCNG1
T24 chain: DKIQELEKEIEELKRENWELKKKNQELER

[25] = target: T25, 4H2162-bH; assay: two-hybrid library CCNG1
T25 chain: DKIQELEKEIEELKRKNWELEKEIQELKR

[26] = target: T26, 4H2233-bH; assay: two-hybrid library CCNG1
T26 chain: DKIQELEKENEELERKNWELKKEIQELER

[27] = target: T27, 4H2253-bH; assay: two-hybrid library CCNG1
T27 chain: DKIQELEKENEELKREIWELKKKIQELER

[28] = target: T28, 4H235-bH; assay: two-hybrid library CCNG1
T28 chain: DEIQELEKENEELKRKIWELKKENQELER

[29] = target: T29, 4H2444-bH; assay: two-hybrid library CCNG1
T29 chain: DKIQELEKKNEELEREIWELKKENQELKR

[30] = target: T30, 4H2518-bH; assay: two-hybrid library CCNG1
T30 chain: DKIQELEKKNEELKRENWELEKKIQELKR

[31] = target: T31, 4H2585-bH; assay: two-hybrid library CCNG1
T31 chain: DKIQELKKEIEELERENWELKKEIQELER

[32] = target: T32, 4H264-bH; assay: two-hybrid library CCNG1
T32 chain: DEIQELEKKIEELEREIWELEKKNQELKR

[33] = target: T33, 4H2760-bH; assay: two-hybrid library CCNG1
T33 chain: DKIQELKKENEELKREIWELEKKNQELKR

[34] = target: T34, 4H2859-bH; assay: two-hybrid library CCNG1
T34 chain: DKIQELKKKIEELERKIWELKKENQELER

[35] = target: T35, 4H2931-bH; assay: two-hybrid library CCNG1
T35 chain: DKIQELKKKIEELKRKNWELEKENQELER

[36] = target: T36, 4H3041-bH; assay: two-hybrid library CCNG1
T36 chain: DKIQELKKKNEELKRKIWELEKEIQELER

[37] = target: T37, 4H3297-bH; assay: two-hybrid library CCNG1
T37 chain: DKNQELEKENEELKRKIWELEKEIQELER

[38] = target: T38, 4H3364-bH; assay: two-hybrid library CCNG1
T38 chain: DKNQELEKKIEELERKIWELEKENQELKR

[39] = target: T39, 4H3381-bH; assay: two-hybrid library CCNG1
T39 chain: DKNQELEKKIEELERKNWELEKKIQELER

[40] = target: T40, 4H349-bH; assay: two-hybrid library CCNG1
T40 chain: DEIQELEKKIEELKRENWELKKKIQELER

[41] = target: T41, 4H56-bH; assay: two-hybrid library CCNG1
T41 chain: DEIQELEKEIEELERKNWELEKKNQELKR

[42] = target: T42, 4H730-bH; assay: two-hybrid library CCNG1
T42 chain: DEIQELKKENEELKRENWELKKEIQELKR

[43] = target: T43, 4H796-bH; assay: two-hybrid library CCNG1
T43 chain: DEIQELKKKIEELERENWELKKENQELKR

[44] = target: T44, 4H932-bH; assay: two-hybrid library CCNG1
T44 chain: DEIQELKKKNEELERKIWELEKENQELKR

[45] = target: T45, 4H949-bH; assay: two-hybrid library CCNG1
T45 chain: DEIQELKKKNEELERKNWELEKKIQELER

[46] = target: T46, 4H967-bN; assay: two-hybrid library CCNG1
T46 chain: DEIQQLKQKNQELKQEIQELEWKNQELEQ

[47] = target: T47, Core_INNN-es_KKKE; assay: two-hybrid library CCmax; settings: mean of both orientations
T47 chain: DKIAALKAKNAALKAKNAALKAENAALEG

Binder: DENAALEAEIAALEAEIAALEAENAALEG [Core_NIIN-es_EEEE]
interaction score [1]: 1.68

Binder: DEIAALEAKNAALKAENAALEAKIAALKG [Core_INNI-es_EKEK]
interaction score [15]: 2.27

Binder: DEIAALEAKNAALKAKIAALKAKIAALKG [Core_INII-es_EKKK]
interaction score [16]: 2.08

Binder: DEIAALEAENAALEAKNAALKAEIAALEG [Core_INNI-es_EEKE]
interaction score [19]: 2.03

Binder: DEIAALEAENAALEAKNAALKAENAALEG [Core_INNN-es_EEKE]
interaction score [20]: 1.84

Binder: DEIAALEAENAALEAKIAALKAKNAALKG [Core_ININ-es_EEKK]
interaction score [22]: 2.03

Binder: DEIQELEKENEELERKIWELEKKIQELKR [4H166-bH]
interaction score [23]: 0.0371
interaction score [24]: 0.23
interaction score [25]: 1.49
interaction score [26]: 0.81
interaction score [27]: 1.03
interaction score [28]: -0.624
interaction score [29]: 0.192
interaction score [30]: 1.54
interaction score [31]: 0.621
interaction score [32]: 0.0745
interaction score [33]: 0.896
interaction score [34]: 1.65
interaction score [35]: 1.25
interaction score [36]: 1.58
interaction score [37]: 1.62
interaction score [38]: -1.32
interaction score [39]: 0.522
interaction score [40]: 0.968
interaction score [41]: -1.05
interaction score [42]: 0.00471
interaction score [43]: 0.588
interaction score [44]: 0.193
interaction score [45]: 0.814
interaction score [46]: -0.508

Binder: DEIAALEAENAALEAENAALEAKNAALKG [Core_INNN-es_EEEK]
interaction score [47]: 2.01

Continued, values first:

interaction score [2]: 0.178
interaction score [3]: 0.862
interaction score [4]: -0.838
interaction score [5]: 1.14
interaction score [6]: -1.33
interaction score [7]: 1.35
interaction score [8]: -0.889
interaction score [9]: -0.973
interaction score [10]: 0.126
interaction score [11]: 0.654
interaction score [12]: -0.375
interaction score [13]: 1.04
Binder: DKNKQLKKENEELERKIWELKKKIEQLKQ [P10bH1]

interaction score [14]: 2.18
Binder: DEIAALEAENAALEAENAALEAENAALEG [Core_INNN-es_EEEE]

interaction score [17]: 2.01
Binder: DENAALEAEIAALEAEIAALEAEIAALEG [Core_NIII-es_EEEE]

interaction score [18]: 1.83
Binder: DEIAALEAKNAALKAEIAALEAEIAALEG [Core_INII-es_EKEE]

interaction score [21]: 1.87
Binder: DEIAALEAKIAALKAKNAALKAENAALEG [Core_IINN-es_EKKE]
